We go through 3 molecules from patent US20190374506A1 (BETH ISREAL DEACONESS MEDICAL CENTER, published 2019).

Sequences and labels used below:
B1: Phosphatase And Tensin Homolog Deleted On Chromosome Ten (PTEN) (enzyme)
chain: not shown
notes: also called endogenous PTEN; PTEN WT

Data set [1] concerns the target T1, Flag-WWP1 ΔWW domain (deletion 341-547) (Homo sapiens (Human), UniProt Q9H0M0 1-922).
T1 construct: The two kept ranges are counted on the 922-residue WWP1 entry; not shown: Flag tag
T1 sequence: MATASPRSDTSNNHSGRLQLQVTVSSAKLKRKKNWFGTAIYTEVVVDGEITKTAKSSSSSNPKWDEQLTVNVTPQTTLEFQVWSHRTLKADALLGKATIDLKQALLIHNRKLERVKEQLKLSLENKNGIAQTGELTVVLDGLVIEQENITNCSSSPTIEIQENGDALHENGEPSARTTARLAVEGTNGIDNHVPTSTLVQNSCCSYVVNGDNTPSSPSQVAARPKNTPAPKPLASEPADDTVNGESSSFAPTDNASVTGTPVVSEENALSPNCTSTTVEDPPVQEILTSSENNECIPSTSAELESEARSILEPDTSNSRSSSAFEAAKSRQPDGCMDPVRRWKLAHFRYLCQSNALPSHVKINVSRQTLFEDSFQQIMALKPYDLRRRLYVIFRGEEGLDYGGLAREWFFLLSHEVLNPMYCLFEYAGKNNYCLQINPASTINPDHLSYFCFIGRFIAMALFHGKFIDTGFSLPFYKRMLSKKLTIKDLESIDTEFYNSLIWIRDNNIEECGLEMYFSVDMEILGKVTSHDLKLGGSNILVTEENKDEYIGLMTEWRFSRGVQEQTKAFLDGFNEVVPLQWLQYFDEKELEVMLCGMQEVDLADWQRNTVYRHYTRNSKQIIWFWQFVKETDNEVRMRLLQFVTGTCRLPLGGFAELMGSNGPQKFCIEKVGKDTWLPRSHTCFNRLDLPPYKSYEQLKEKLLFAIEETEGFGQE
The data set is described as follows: immunoprecipitation and western blot, 293 cells (FIG. 4E). As for the experimental part: Lysates of 293 cells transfected with indicated constructs were analysed by immunoprecipitation and/or western blot with indicated antibodies.
(§1) Western Blotting and Immunoprecipitation. For western blotting, cells were lysed in RIPA buffer (Boston BioProducts) supplemented with protease (Roche) and phosphatase (Roche) inhibitor. Proteins were separated on NuPAGE 4-12% Bis-Tris gradient gels (Invitrogen), transferred to polyvinylidine difluoride membranes (Immobilon P, Millipore) and the blots were probed with the indicated antibodies. For immunoprecipitation, PC3, 293T and MEF cells were transfected with the indicated expression vectors by using LIPOFECTAMIN 2000 (Life Technologies). 24 hours after transfection, cells were lysed in RIPA buffer with protease (Roche) and phosphatase (Roche) inhibitor. 500 μg of total lysates were pre-cleared for 30 minutes at 4° C., and then immunoprecipitated with anti-Myc (Cell Signaling Technology 9B11, 1:500), or anti-PTEN (Cell Signaling Technology 9559, 1:500) antibody overnight at 4° C. The Protein-A or Protein-G sepharose beads (GE Healthcare) were then added and incubated for another 2 hours. The immunoprecipitates were washed with RIPA buffer three times. […]
(In general: A western blot detects proteins with antibodies after separation by electrophoresis.)

The target in data set [2] is T2, WW domain containing E3 ubiquitin protein ligase 1 (WWP1) (human, UniProt Q9H0M0 1-922, limits assumed).
T2 construct: also called endogenous WWP1; WW domain-containing protein-1
The data set is described as follows: anti-PTEN immunoprecipitation from DU145 cells, western blot (FIG. 2B).

The target in another data set is T3, Flag-WWP1 (Homo sapiens (Human), UniProt Q9H0M0 1-922).
T3 construct: also called full-length Flag-WWP1; recombinant Flag-WWP1; not shown: Flag tag
The data set is described as follows: recombinant Flag-WWP1 incubated with immunopurified recombinant NEDD4-1, western blot (FIG. 2C). As for the experimental part: FIG. 2C is a Western blot showing that WWP1 binds NEDD4-1 in vitro. Recombinant Flag-WWP1 were incubated with immunopurified recombinant NEDD4-1, and then analysed by western blot.

Data set [3] has as its target T2, WW domain containing E3 ubiquitin …. The data set is described as follows: anti-PTEN immunoprecipitation from DU145 cells, western blot (FIG. 2B); both ligases found in the same complex.
Data set [4] addresses B1. The data set is described as follows: co-immunoprecipitation with anti-NEDD4 antibody from PWRE-1 cell lysates after 16 h normoxia (N) or hypoxia (H), western blot. How it is done: FIG. 13D is a Western blot showing that NEDD4-1 switches its interaction proteins under different physiological conditions. PWRE-1 cells were cultured in normoxic or hypoxic conditions for 16 hours. Total cell lysates were immunoprecipitated with anti-NEDD4 antibody, and then examined by western blot with indicated antibodies.
as §1

Data set [5] deals with the molecule itself. The data set is described as follows: self-association of PTEN in Wwp1-/- against Wwp1+/+ MEFs, non-reducing/non-denaturing gel (FIG. 5F); similar results in Nedd4-/- MEFs (FIG. 5I).
From the text: Similar results were also obtained in Nedd4^{-/-} MEFs (FIG. 5I, FIG. 5J).
as §1, with “times. In denaturing conditions, standard Laemmli-Buffer with 5% final concentration of β-mercaptoethanol was added to the samples, which were then boiled and separated on NuPAGE 4-12% Bis-Tris gradient gels (Invitrogen).” for “times.”

Consider B1, for which the binding result in data set [1] was “no binding”; in data set [2] it was “binds”.

B2: Neural Precursor Cell Expressed Developmentally Down-Regulated Protein 4 polypeptide (NEDD4-1) (enzyme)
chain: MATCAVEVFGLLEDEENSRIVRVRVIAGIGLAKKDILGASDPYVRVTLYDPMNGVLTSVQTKTIKKSLNPKWNEEILFRVHPQQHRLLFEVFDENRLTRDDFLGQVDVPLYPLPTENPRLERPYTFKDFVLHPRSHKSRVKGYLRLKMTYLPKTSGSEDDNAEQAEELEPGWVVLDQPDAACHLQQQQEPSPLPPGWEERQDILGRTYYVNHESRRTQWKRPTPQDNLTDAENGNIQLQAQRAFTTRRQISEETESVDNRESSENWEIIREDEATMYSNQAFPSPPPSSNLDVPTHLAEELNARLTIFGNSAVSQPASSSNHSSRRGSLQAYTFEEQPTLPVLLPTSSGLPPGWEEKQDERGRSYYVDHNSRTTTWTKPTVQATVETSQLTSSQSSAGPQSQASTSDSGQQVTQPSEIEQGFLPKGWEVRHAPNGRPFFIDHNTKTTTWEDPRLKIPAHLRGKTSLDTSNDLGPLPPGWEERTHTDGRIFYINHNIKRTQWEDPRLENVAITGPAVPYSRDYKRKYEFFRRKLKKQNDIPNKFEMKLRRATVLEDSYRRIMGVKRADFLKARLWIEFDGEKGLDYGGVAREWFFLISKEMFNPYYGLFEYSATDNYTLQINPNSGLCNEDHLSYFKFIGRVAGMAVYHGKLLDGFFIRPFYKMMLHKPITLHDMESVDSEYYNSLRWILENDPTELDLRFIIDEELFGQTHQHELKNGGSEIVVTNKNKKEYIYLVIQWRFVNRIQKQMAAFKEGFFELIPQDLIKIFDENELELLMCGLGDVDVNDWREHTKYKNGYSANHQVIQWFWKAVLMMDSEKRIRLLQFVTGTSRVPMNGFAELYGSNGPQSFTVEQWGTPEKLPRAHTCFNRLDLPPYESFEELWDKLQMAIENTQGFDGVD
notes: also called endogenous NEDD4-1; immunopurified recombinant NEDD4-1
B2: the binding result (in the data set with Flag-WWP1; in data set [3]; in data set [4]) was “binds” each time.

B3: PTEN of MEFs (mouse) (enzyme, UniProt O08586 2-403, looked up)
chain: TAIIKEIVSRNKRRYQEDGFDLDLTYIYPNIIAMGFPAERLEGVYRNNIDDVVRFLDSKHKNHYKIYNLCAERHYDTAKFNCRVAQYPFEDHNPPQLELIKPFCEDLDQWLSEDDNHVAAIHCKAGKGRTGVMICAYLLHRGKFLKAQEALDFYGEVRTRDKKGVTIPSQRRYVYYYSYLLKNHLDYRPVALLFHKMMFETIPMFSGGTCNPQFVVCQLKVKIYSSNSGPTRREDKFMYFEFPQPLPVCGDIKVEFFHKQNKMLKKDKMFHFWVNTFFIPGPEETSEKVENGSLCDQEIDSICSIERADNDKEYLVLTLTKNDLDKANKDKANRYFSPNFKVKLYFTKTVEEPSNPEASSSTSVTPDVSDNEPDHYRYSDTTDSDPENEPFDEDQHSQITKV
notes: also called PTEN in Wwp1+/+ and Wwp1-/- MEFs; PTEN in Nedd4+/+ and Nedd4-/- MEFs
Turning to B3, the binding result in data set [5] is on record as “binds”.
